Source: patent US20110082079A1 (Novo Nordisk, published 2011)
*1 amine or outer side, *2 acyl side, *3 side chain or, on linkers, in order; H or OH if unused. Where no end group is shown, it is not given here. Side-chain parts run from the residue outwards. [ ]: non-standard residue; d: D form. The star is where a group is joined. C20 diacid = O=C(O)CCCCCCCCCCCCCCCCCCC(=O)*; C18 diacid = O=C(O)CCCCCCCCCCCCCCCCC(=O)*; C16 diacid = O=C(O)CCCCCCCCCCCCCCC(=O)*; γGlu = O=C(O)[C@H](CCC(=O)[*:2])N[*:1]; Desaminohistidyl = O=C(CCc1c[nH]cn1)*; βAsp = O=C(O)[C@H](CC(=O)[*:2])N[*:1]; Palmitoyl = CCCCCCCCCCCCCCCC(=O)*; Trx = NC[C@H]1CC[C@H](C(=O)O)CC1; Dap = NC[C@H](N)C(=O)O; AEEA = NCCOCCOCC(=O)O; Aib = CC(C)(N)C(=O)O; Inp = O=C(O)C1CCNCC1

Columns and labels:
human GLP-1 receptor = human GLP-1 receptor (human, UniProt P43220 24-463); test: cell-based or functional assay
[1] = molecular target: T1, human serum albumin (HSA) (human, UniProt P02768 25-609, biotinylated); test: competition SPA on biotinylated HSA beads; competitor 125I-labelled acylated GLP-1 analogue
T1 construct: also called biotinylated HSA

[2] = molecular target: isolated N-terminal extracellular domain of the GLP-1R receptor (nGLP-1R) (UniProt P43220); test: SPA; displacement of 125I-Exendin-4(9-39) from biotinylated nGLP-1R
Sequence of isolated N-terminal extracellular domain of the GLP-1R receptor (nGLP-1R) (P43220 24-145 limits assumed): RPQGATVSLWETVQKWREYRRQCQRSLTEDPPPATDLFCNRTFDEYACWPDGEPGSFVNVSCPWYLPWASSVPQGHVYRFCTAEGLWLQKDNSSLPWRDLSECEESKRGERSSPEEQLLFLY

Sequence of human GLP-1 receptor (P43220 24-463): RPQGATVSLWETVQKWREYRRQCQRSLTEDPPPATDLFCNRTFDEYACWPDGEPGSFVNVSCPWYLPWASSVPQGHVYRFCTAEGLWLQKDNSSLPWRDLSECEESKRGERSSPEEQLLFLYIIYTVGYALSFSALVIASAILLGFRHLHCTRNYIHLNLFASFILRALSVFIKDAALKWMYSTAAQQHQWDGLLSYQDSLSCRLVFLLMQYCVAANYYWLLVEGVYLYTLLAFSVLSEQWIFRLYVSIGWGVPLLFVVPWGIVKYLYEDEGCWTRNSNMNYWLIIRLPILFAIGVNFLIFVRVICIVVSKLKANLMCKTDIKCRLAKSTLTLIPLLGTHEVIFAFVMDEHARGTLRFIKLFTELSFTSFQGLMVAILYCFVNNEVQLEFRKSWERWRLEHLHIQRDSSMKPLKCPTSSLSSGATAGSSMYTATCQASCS

| Potency [EC50/nM], cAMP formation (human GLP-1 receptor) [nM] | EC50 [1] [nM] | IC50 [2] [nM] | Molecule |
| --- | --- | --- | --- |
| 0.74 | 800 |  | N-epsilon31{2-(2-{2-[2-(2-{2-[4-Carboxy-4-(17-carboxy-heptadecanoylamino)butyrylamino]ethoxy}ethoxy)acetylamino]ethoxy}ethoxy)acetyl}-[Aib8,Glu22,Val25,Arg26,Lys31,Arg34,Arg35,Arg37)]GLP-1(7-37)yl [Arg39,Arg40,Arg41] (peptide) |
| 0.1 |  | 1500 | Liraglutide (peptide) |
| 0.06 | 100 to 150 |  | H[Aib]EGTFTSDVSSYLEEQAAREFIAWLVR[Aib]RK([AEEA-AEEA-γGlu-C18 diacid]) |
| 0.29 | 150 to 200 |  | H[Aib]EGTFTSDVSSYLEEQAAREFIEWLVKGRPK (not fully specified (residue 32); printed as [Aib8,Glu22,Arg26,Glu30,Pro37]GLP-1-(7-37)Lys [2-(2-{2-[4-Carboxy-4-(4-carboxy-4-{4-[4-(16-1H-tetrazol-5-yl-hexadecanoylsulfamoyl)butyrylamino]butyrylamino}butyrylamino)butyrylamino]ethoxy}ethoxy)acetyl]) [[Aib8,Glu22,Arg26,Glu30,Pro37]GLP-1-(7-37)Lys …] |
| 0.22 | 200 to 400 |  | H[Aib]EGTFTSDVSSYLEEQAAREFIEWLVKGK([AEEA-AEEA-C18 diacid])GE-NH2 |
| 0.08 | 200 to 400 |  | HXEGTFTSDVSSYLEEQAAREFIAWLVRGRK (not fully specified; Aib at 8; Lys37 is bound to the peptide through its epsilon amino group (epsilon-Lys37) and acylated at N-alpha with the side chain given in the name) |
| 0.35 | 1500 to 2000 |  | XAEGTFTSDVSSYLEEQAAREXIAWLVRGRK (desamino-histidine at 7; m-CF3-phenylalanine at 28; residue 37 acylated at N-epsilon with the side chain given in the name; C-terminal amide) |
| 0.16 |  |  | [Desaminohistidyl]AEGTFTSDVSSYLEEQAAREFIEWLVRGRK([AEEA-AEEA-γGlu-Palmitoyl])-NH2 (SMILES CCCCCCCCCCCCCCCC(=O)N[C@@H](CCC(=O)NCCOCCOCC(=O)NCCOCCOCC(=O)NCCCC[C@H](NC(=O)[C@H](CCCNC(=N)N)NC(=O)CNC(=O)[C@H](CCCNC(=N)N)NC(=O)[C@@H](NC(=O)[C@H](CC(C)C)NC(=O)[C@H](Cc1c[nH]c2ccccc12)NC(=O)[C@H](CCC(=O)O)NC(=O)[C@@H](NC(=O)[C@H](Cc1ccccc1)NC(=O)[C@H](CCC(=O)O)NC(=O)[C@H](CCCNC(=N)N)NC(=O)[C@H](C)NC(=O)[C@H](C)NC(=O)[C@H](CCC(N)=O)NC(=O)[C@H](CCC(=O)O)NC(=O)[C@H](CCC(=O)O)NC(=O)[C@H](CC(C)C)NC(=O)[C@H](Cc1ccc(O)cc1)NC(=O)[C@H](CO)NC(=O)[C@H](CO)NC(=O)[C@@H](NC(=O)[C@H](CC(=O)O)NC(=O)[C@H](CO)NC(=O)[C@@H](NC(=O)[C@H](Cc1ccccc1)NC(=O)[C@@H](NC(=O)CNC(=O)[C@H](CCC(=O)O)NC(=O)[C@H](C)NC(=O)CCc1c[nH]cn1)[C@@H](C)O)[C@@H](C)O)C(C)C)[C@@H](C)CC)C(C)C)C(N)=O)C(=O)O) |
| 0.34 | 150 to 200 |  | H[Aib]EGTFTSDVSSYLEEQAVREFIAK([AEEA-AEEA-γGlu-C18 diacid])LV[Dap](2‑(bis-carboxymethylamino)acetyl)-NH2 (GLP-1(7-34) = residues 1-28 of the entry) |
| 0.04 | 1500 to 2000 |  | [Desaminohistidyl]AEGTFTSDVSSYLEEQAAREFIEWLVRGRGEK([AEEA-AEEA-γGlu-C18 diacid]) [[desaminoHis7, Glu22, Arg26, Glu30, …] |
| 0.21 | > 2000 |  | [Desaminohistidyl]AEGTFTSDVSSYLEEQAAREFIEWLVRGK([AEEA-AEEA-γGlu-C16 diacid])GEK |
| 0.14 | 400 to 800 |  | H[Aib]EGTFTSDVSSYLEEQAVREFIAK([AEEA-AEEA-γGlu-C18 diacid])LVKKK-NH2 (N-terminus assumed; SMILES CC[C@H](C)[C@H](NC(=O)[C@H](Cc1ccccc1)NC(=O)[C@H](CCC(=O)O)NC(=O)[C@H](CCCNC(=N)N)NC(=O)[C@@H](NC(=O)[C@H](C)NC(=O)[C@H](CCC(N)=O)NC(=O)[C@H](CCC(=O)O)NC(=O)[C@H](CCC(=O)O)NC(=O)[C@H](CC(C)C)NC(=O)[C@H](Cc1ccc(O)cc1)NC(=O)[C@H](CO)NC(=O)[C@H](CO)NC(=O)[C@@H](NC(=O)[C@H](CC(=O)O)NC(=O)[C@H](CO)NC(=O)[C@@H](NC(=O)[C@H](Cc1ccccc1)NC(=O)[C@@H](NC(=O)CNC(=O)[C@H](CCC(=O)O)NC(=O)C(C)(C)NC(=O)[C@@H](N)Cc1c[nH]cn1)[C@@H](C)O)[C@@H](C)O)C(C)C)C(C)C)C(=O)N[C@@H](C)C(=O)N[C@@H](CCCCNC(=O)COCCOCCNC(=O)COCCOCCNC(=O)CC[C@H](NC(=O)CCCCCCCCCCCCCCCCC(=O)O)C(=O)O)C(=O)N[C@@H](CC(C)C)C(=O)N[C@H](C(=O)N[C@@H](CCCCN)C(=O)N[C@@H](CCCCN)C(=O)N[C@@H](CCCCN)C(N)=O)C(C)C, GLP-1(7-36) = residues 1-30 of the entry) |
| 0.18 | 200 to 400 |  | H[Aib]EGTFTSDVSSYLEEQAAREFIAK([AEEA-AEEA-βAsp-Inp-C20 diacid])LVRGRG |
| 0.66 |  |  | [Desaminohistidyl]AEGTFTSDVSSYLEEQAAREFIEWLVRGRK([AEEA-AEEA-γGlu-Trx-C20 diacid]) |
| 0.52 | 200 to 400 |  | H[Aib]EGTFTSDVSSYLEEQAAREFIK([AEEA-AEEA-βAsp-Inp-C20 diacid])WLVKGRG |
| 1.27 | > 2000 |  | H[Aib]EGTFTSDVSSYLEEQAVREFIAK([AEEA-AEEA-γGlu-C18 diacid])LVRRRR |
